Measurements as given in patent publication US20150166606A1 (RA PHARMACEUTICALS, published 2015).
Bridge positions count the residues as written; N and C are the ends. Square brackets hold non-standard residues; d marks the D form. Primed or numbered codes have the meaning given here. * marks the point of attachment. N‑ω hexylcarbamate = hexyl carbamate on the ω-nitrogen of the arginine side chain, CCCCCCOC(=O)*; mXylyl = xylyl linker from dibromoxylene joining the two cysteines; 4‑BZA = 2-amino-3-(4-carbamimidoylphenyl)propanoic acid; Trp(5-Cl) = N[C@@H](Cc1c[nH]c2ccc(Cl)cc12)C(=O)O; des‑NH2 = missing amino-terminal amine group; Phe(3-Cl) = N[C@@H](Cc1cccc(Cl)c1)C(=O)O; Phe(4-Cl) = N[C@@H](Cc1ccc(Cl)cc1)C(=O)O; NMeI = CC[C@H](C)[C@H](NC)C(=O)O; BODIPY‑TMR = fluorescent label; Phg(2-OMe)′ = not defined here; dPhg = N[C@@H](C(=O)O)c1ccccc1; Chg = N[C@H](C(=O)O)C1CCCCC1; Phg = N[C@H](C(=O)O)c1ccccc1; Tle = CC(C)(C)[C@H](N)C(=O)O; αMeP = C[C@@]1(C(=O)O)CCCN1; 2‑APY = not defined here; 3‑BZA = not defined here; Aze = O=C(O)[C@@H]1CCN1; Thp = NC1(C(=O)O)CCOCC1; Ac4c = NC1(C(=O)O)CCC1; Ac3c = NC1(C(=O)O)CC1; Aib = CC(C)(N)C(=O)O; Mpa = O=C(O)CCS

Target: Activated human plasma kallikrein (Enzyme Research Laboratories, HPKa 1303) (human, UniProt P03952 20-638)
Sequence (P03952 20-638 limits assumed): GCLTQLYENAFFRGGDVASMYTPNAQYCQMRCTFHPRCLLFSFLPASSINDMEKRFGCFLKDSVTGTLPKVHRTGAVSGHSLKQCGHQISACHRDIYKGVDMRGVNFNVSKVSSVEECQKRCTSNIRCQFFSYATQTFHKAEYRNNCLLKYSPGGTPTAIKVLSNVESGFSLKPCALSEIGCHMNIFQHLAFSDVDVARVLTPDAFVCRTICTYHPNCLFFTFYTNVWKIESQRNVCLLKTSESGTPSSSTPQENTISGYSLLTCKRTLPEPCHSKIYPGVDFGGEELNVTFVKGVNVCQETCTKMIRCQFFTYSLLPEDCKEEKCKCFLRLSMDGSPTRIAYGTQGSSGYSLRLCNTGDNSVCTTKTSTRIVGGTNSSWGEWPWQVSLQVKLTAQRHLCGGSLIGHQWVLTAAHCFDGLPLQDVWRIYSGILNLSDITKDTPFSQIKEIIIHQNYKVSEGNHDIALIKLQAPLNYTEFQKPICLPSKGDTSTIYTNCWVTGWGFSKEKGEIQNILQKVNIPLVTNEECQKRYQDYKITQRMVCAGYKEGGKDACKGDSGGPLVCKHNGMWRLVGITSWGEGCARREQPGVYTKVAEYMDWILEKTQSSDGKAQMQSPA
Assay: cell-based or functional assay

B1: R2176 (peptide)
peptide: [Mpa][Aib][Chg]CR[Tle]-NH2
modifications: linker 1-4 via mXylyl
- Avg. IC50: 15.2 nM

B2: R2177 (peptide)
peptide: [Mpa][Ac3c][Chg]CR[Tle]-NH2
modifications: linker 1-4 via mXylyl
- Avg. IC50: 34.1 nM

B3: R2178 (peptide)
peptide: CXAGCRV
modifications: [mXylyl(1,5)](des-NH2)C-(Cyclo-L)-A-Chg-CR-V-NHCH3
- Avg. IC50: 3.2 nM

B4: R2179 (peptide)
peptide: [Mpa][Thp]A[Chg]C[3‑BZA]V-NH2
modifications: linker 1-5 via mXylyl; reading uncertain; also: printed as [mXylyl(1,5)](des-NH2)C-AcPyr-A-Chg-C-(3-BZA)-V-NH2
- Avg. IC50: > 8230 nM

B5: R2180 (peptide)
peptide: {des‑NH2}-C[αMeP][Chg]CR[Tle]-NH2
modifications: linker 1-4 via mXylyl
- Avg. IC50: 6.8 nM

B6: R2181 (peptide)
peptide: [Mpa][Ac4c][Chg]CR[Tle]-NH2
modifications: linker 1-4 via mXylyl
- Avg. IC50: 18.5 nM

B7: R2182 (peptide)
peptide: [Mpa][Thp][Chg]CR[Tle]-NH2
modifications: linker 1-4 via mXylyl
- Avg. IC50: 13.5 nM

B8: R2183 (peptide)
peptide: {des‑NH2}-CP[Chg]CRV-OH
modifications: linker 1-4 via mXylyl
- Avg. IC50: > 3500 nM

B9: R2184 (peptide)
peptide: {des‑NH2}-CP[Chg]CRV-NHMe
modifications: linker 1-4 via mXylyl
- Avg. IC50: 15.7 nM

B10: R2185 (peptide)
peptide: [Mpa][Thp]A[Chg]C[4‑BZA](N‑hexylcarbamate)V-NH2
modifications: linker 1-5 via mXylyl
- Avg. IC50: > 100000 nM

B11: R2186 (peptide)
peptide: {des‑NH2}-CP[Chg]CR(N‑ω hexylcarbamate)[Tle]-NH2
modifications: linker 1-4 via mXylyl
- Avg. IC50: > 100000 nM

B12: R2187 (peptide)
peptide: {des‑NH2}-CP[dPhg]CR[Tle]-NH2
modifications: linker 1-4 via mXylyl
- Avg. IC50: > 4700 nM

B13: R2188 (peptide)
peptide: {des‑NH2}-CP[Phg]CR[Tle]-NH2
modifications: linker 1-4 via mXylyl
- Avg. IC50: 3.4 nM

B14: R2189 (peptide)
peptide: {des‑NH2}-CP[Phg(2-OMe)′]CR[Tle]-NH2
modifications: linker 1-4 via mXylyl
- Avg. IC50: 39.8 nM

B15: R2190 (peptide)
peptide: [Mpa][Aib]A[Chg]CR[Tle]LRYSE-NH2
modifications: linker 1-5 via mXylyl
- Avg. IC50: 0.511 nM

B16: R2191 (peptide)
peptide: [Mpa][Aib]A[Chg]CR[Tle]LRYSE(PEG 40 kDa)-NH2
modifications: linker 1-5 via mXylyl
- Avg. IC50: 5.5 nM

B17: R2192 (peptide)
peptide: {des‑NH2}-CP[αMePhg]CR[Tle]-NH2
modifications: linker 1-4 via mXylyl
- Avg. IC50: 851 nM

B18: R2193 (peptide)
peptide: {BODIPY‑TMR}-MCESICRV-NH2
modifications: linker 2-6 via mXylyl
- Avg. IC50: 205 nM

B19: R2194 (peptide)
peptide: [Mpa][Aze][Chg]CR[Tle]-NH2
modifications: linker 1-4 via mXylyl
- Avg. IC50: 127 nM

B20: R2195 (peptide)
peptide: {des‑NH2}-CP[Chg]CR-OH
modifications: linker 1-4 via mXylyl
- Avg. IC50: > 175000 nM

B21: R2196 (peptide)
peptide: {des‑NH2}-CP[Chg]CR-{(S)‑2,2‑dimethyl‑1‑(pyridin-2-yl)propan‑1‑amine}
modifications: linker 1-4 via mXylyl
- Avg. IC50: 35.6 nM

B22: R2197 (peptide)
peptide: {des‑NH2}-CP[Chg]CR-{2‑methyl‑1‑(4H-1,2,4-triazol-3-yl)propan‑1‑amine}
modifications: linker 1-4 via mXylyl
- Avg. IC50: 56.9 nM

B23: R2198 (peptide)
peptide: [Mpa]P[Chg]C[2‑APY][Tle]-NH2
modifications: linker 1-4 via mXylyl; reading uncertain; also: printed as [mXylyl(1,4)](Des-NH2)C-P-Chg-C-(2-APY-Tbg-NH2)
- Avg. IC50: > 15000 nM

B24: R2199 (peptide)
peptide: {des‑NH2}-C[αMeP][Phg]CR[Tle]-NH2
modifications: linker 1-4 via mXylyl
- Avg. IC50: 0.54 nM

B25: R2200 (peptide)
peptide: {des‑NH2}-C[αMeP][dPhg]CR[Tle]-NH2
modifications: linker 1-4 via mXylyl
- Avg. IC50: 470 nM

B26: R2201 (peptide)
peptide: {des‑NH2}-CE[Chg]CR[Tle]-NH2
modifications: linker 1-4 via mXylyl
- Avg. IC50: 7 nM

B27: R2202 (peptide)
peptide: {des‑NH2}-CP[Phg]CR[Tle]L-OH
modifications: linker 1-4 via mXylyl
- Avg. IC50: 58.8 nM

B28: R2203 (peptide)
peptide: {des‑NH2}-CP[Chg]C[2‑amino‑4‑(6-aminopyridin-3-yl)butanoic acid]V-NH2
modifications: linker 1-4 via mXylyl; not fully specified (residue 1)
- Avg. IC50: > 10000 nM

B29: R2204 (peptide)
peptide: {des‑NH2}-CS[NMeI]CR[Tle]-NH2
modifications: linker 1-4 via mXylyl
- Avg. IC50: > 25000 nM

B30: R2205 (peptide)
peptide: {des‑NH2}-CP[Phg]C[Phe(4-Cl)][Tle]-NH2
modifications: linker 1-4 via mXylyl
- Avg. IC50: > 75000 nM

B31: R2206 (peptide)
peptide: {des‑NH2}-CP[dPhg]C[Phe(4-Cl)][Tle]-NH2
modifications: linker 1-4 via mXylyl
- Avg. IC50: > 75000 nM

B32: R2207 (peptide)
peptide: {des‑NH2}-CP[Phg]C[Phe(3-Cl)][Tle]-NH2
modifications: linker 1-4 via mXylyl
- Avg. IC50: > 75000 nM

B33: R2208 (peptide)
peptide: {des‑NH2}-CP[dPhg]C[Phe(3-Cl)][Tle]-NH2
modifications: linker 1-4 via mXylyl
- Avg. IC50: > 75000 nM

B34: R2209 (peptide)
peptide: {des‑NH2}-CP[Phg]C[Trp(5-Cl)][Tle]-NH2
modifications: linker 1-4 via mXylyl
- Avg. IC50: > 75000 nM

B35: R2210 (peptide)
peptide: {des‑NH2}-CP[dPhg]C[Trp(5-Cl)][Tle]-NH2
modifications: linker 1-4 via mXylyl
- Avg. IC50: > 75000 nM
